Values quoted from earlier work in article PMC7855784.

Target: HER2 ECD (Homo sapiens) (UniProt P04626)

For PEPD (from UniProt P12955), the Kd is listed as 7.3 nM.
